The text below walks through data of patent US8591908B2, “Immunogen for preparation of therapeutic vaccines or drugs for treatment of hepatitis B and the producing method and use thereof” (Institute of Immunology, PLA, priority 2002, dated 2013).

Ends that are not written are not given here. * marks the point of attachment. linolenoyl = CH3CH2CH=CHCH2CH=CH(CH2)CH=CH(CH2)7CO, CC/C=C\C/C=C\C/C=C\CCCCCCCC(=O)*; Palmitoyl = CCCCCCCCCCCCCCCC(=O)*

For one series, the system named is HBV-DNA, HBeAg and HBsAg. The series is described as follows: FIG. 5: virus inhibition test with PBMC of HBV carrier and hepatitis patients. The series is classed as cell-based, hepatitis B virus. As to conditions: supernatant, with increase of co-culture time. The text has this:
FIG. 5 indicated the antiviral effects of the immunogen of the present invention. Peripheral blood mononuclear lymphocytes were separately isolated from fresh peripheral bloods of a HLA-A2+HBV carrier, a patient suffering from acute hepatitis, and a patient suffering from chronic hepatitis, and were subjected to virus inhibition tests to measure the copy numbers of HBV-DNA (A) and secretion levels of HBeAg and HBsAg in the supernatant (B, C).

Series [1] in a line: Size shrinkage of liposome after lyophilization. The series is classed as physicochemical. As to conditions: 5% mannitol/10 mmol/L phosphate buffer. An excerpt:
In the Table 16, all of the formulations 1-11 contained a buffer of 5% mannitol/10 mmol/L phosphate(KH2PO4/Na2HPO4 was 60/40)
When the addition amount of the concentrated liposome solution was 25-50% (v/v) of the semifinished product liquor for subpackage, addition of 1% human serum albumin as excipient will result in better lyophilization effects. Thus, when the volume of the concentrated liposome solution was equal to the volume of the emulsion (W/O), the volume of the concentrated liposome solution was determined as 37.5% (v/v) of the volume of the product liquor for subpackage, i.e., an average level of the amount of the concentrated liposome solution. In this case, the concentrations of the adjuvants in the product liquor for subpackage should meet the requirements as set forth in Table 16-4. The volume of subpackage should be 1 ml and meet the requirements for the formulation of lyophilized liposome injection. In practice, the volume of the concentrated liposome solution usually is greater than the volume of emulsion (W/O), so the volume of the product liquor for subpackage may be increased. Thus, the actual subpackage volume is calculated according to the following formula.

For series [2], the system named is HBV-DNA transgenic mice. In words: HBV transgenic mice: cytokines of spleen lymphocytes, ELISA (Th1/Th2). Type of series: in vivo. As to conditions: 10, 100, 1000 U/mouse s.c., day 30; spleen lymphocytes restimulated with 10 ng/ml for 3 days. On the procedure:
(§1) The levels of cytokines such as IFN-γ, IL-4, etc. in supernatant were measured by the ELISA method, and the activity of the test drug (CH3(CH2)14COKSSQYIKANSKFIGITEAAASIVSPFIPLLGGGDPRVRGLYFPA) (SEQ ID NO:5) for inducing the differentiation of T cells into Th1/Th2 type was analyzed. […] The expression frequency of IFN-γ secreting cells in peripheral blood lymphocytes was measured by the ELI-SPOT method in said supernatant. […] On the 10th, 20th and 30th day after the end of the three immunizations, bloods were removed, serum isolated, and the contents of HBsAg and HBV-DNA in the serum were separately measured by the ELISA method and quantitative PCR method.
Then supernatants were collected and the secretion levels of cytokines such as TNF-α, IFN-γ, IL-4, etc. in supernatants were measured by ELISA, and the activity of the test drug for inducing the conversion of Th1/Th2 type from T cells in subjects was analyzed.
A general note: ELISA stands for enzyme-linked immunosorbent assay.

Series [3] concerns HBV-DNA transgenic mice. The series is described as follows: HBV transgenic mice: IFN-γ secreting cells, ELI-SPOT. Type of series: in vivo. The note with it: 30th day after end of immunization. Here is the method:
as §1
The expression frequency of IFN-γ secreting cells in peripheral blood lymphocytes was measured by the ELI-SPOT method.

Series [4] has as its system hepatitis B surface antigen (HBsAg) in HBV transgenic mice. In words: HBV transgenic mice: HBsAg in serum, ELISA. The series is classed as in vivo. The note with it: 10th, 20th, 30th day after three immunizations, 10-1000 U/mouse. On the procedure:
as §1

The subject of series [5] is HBV DNA in HBV transgenic mice. In words: HBV transgenic mice: HBV DNA in serum, quantitative PCR. The series is classed as in vivo. The note with it: 10th, 20th, 30th day after three immunizations, 10-1000 U/mouse. Here is the method: as §1
The subject of series [6] is peripheral blood mononuclear lymphocytes of HLA-A2+ healthy person. The note with it: culture supernatant, 24 h after last stimulation.
Series [7] is described as follows: Encapsulation rate of liposome (RP-HPLC). Type of series: physicochemical. As to conditions: L9(3^4) orthogonal test of lipid components and liposome forming conditions; 6 mmol/L vitamin E. Here is the method:
Liposome was prepared by a double emulsion method. The lipid components were dissolved in ethyl ether solution, mixed with the concentrate of the present compound to form an emulsion (W/O), then poured into phosphate buffer (PB) or water under a controlled temperature and stirred to form a further emulsion (W/O/W), and liposome was gradually formed as ethyl ether gradually volatilized. The product in free form and aggregate and precipitate in the liquid was removed by concentration in ultrafiltration apparatus and dialysis (the dialysis must be 200 folds or higher) and by filtration via a 10 μm microporous filter. Aliquots were removed for reversed phase high performance liquid chromatography (RP-HPLC) to determine the encapsulation amount, and the encapsulation rate was calculated by comparing to the incorporated amount. L9(3^4) orthogonal table was used in the experimental design.
Based on the formulation and conditions determined by said orthogonal test, the effects of the concentration of the immunogen solution on the encapsulation rate of the liposome were compared. […]

The subject of another series is enzyme-labeled antibody. The series is described as follows: Potency/specific activity of stock solution or semifinished product, enzyme-linked plate. Type of series: binding. As to conditions: stock solution after reversed phase chromatography; batches 1-3 and x ± Sx. The text has this: Chromatography column AP5 20/275 POROS 50 R1 was used in the batch production. After peptide-resin was cleaved and preliminarily purified, the collected εPA44 sample was divided into 7 parts for high purification, and the effects and reproducibility for batch purification of εPA44 stock solution were furthered studied. […] The collected elution peak fractions of εPA44 were pooled and mixed homogenously, aliquots were removed for analysis. If the sample met the set standards, it was used as the stock solution and was stored at −20° C. until use. The output, yield and specific activity of the product were calculated based on the measured data.
The semifinished product to be tested was diluted to a concentration within the measurable range of the potency determination. An enzyme-linked plate( ? ) was coated, blocked, bound by enzyme-labeled antibody, and developed. The absorbance at 450 nm (A450 nm) was detected by an enzyme-labeling device, and compared to the reference of the product. The potency of εPA44 in the extract of the sample was determined, and the specific activity of the semifinished product ( ? ) was calculated.
The reference of the product was 10-fold diluted with 50% ethanol, and then was two-fold serially diluted. 100 μl dilutions were separately added to the wells on the 96-well enzyme-linket immunosorbent assay plate, each well was repeated in triplicate. Coating was carried out in refrigerator at 4° C. for 20-24 hours. The stock solution of εPA44 was diluted and coated similarly to the reference. 100 μl of 50% ethanol was added to negative control wells. After the coating was completed, 200 μl 1% calf serum was added to each well, and blocked in refrigerator at 4° C. for 2 hours. The enzyme-linket immunosorbent assay plate was dried in air, 80 μl enzyme-labeled antibody was added to each well and incubated at 37° C. for 40 minutes. The plate was washed with wash solution for 4 times and dried in air, then 50 μl of substrate solution A and 50 μl of substrate solution B were added to each well and developed at 37° C. for 15 minutes under protection from light. Then 50 μl of stop solution was added to each well. A450 nm values were detected on 550 type enzyme-linket immunosorbent assay detector. The median dilution times of the reference and the samples were calculated by program or linear regression method based on the median effect value of the reference of εPA44 (median maximum absorbance), and the potency of the test sample and the specific activity of the product were calculated according to the following formulas.

In series [8] the test system is T2 cells, E6 cells and HepG2.2.15 cells. The series is described as follows: HBV-specific CTL from human PBMCs, 51Cr release cytotoxicity test. Type of series: cell-based. On the procedure:
Human PBMCs were divided into groups and cultured in RPMI1640 culture media (containing 10% calf serum, and 100μ/ml penicillin-streptomycin) (10^6/ml, 24-well culture plates) in vitro for one day. After they recovered the original growth state, IL-2(30-IU/ml) and test drug (0.1 μg/ml, 1 μg/ml) were separately added. […] 3 days after the last stimulation, antigen-specific effective CTL cells were obtained. Cytotoxicity was tested by standard ^51Cr release tests and compared. Target cells (T2 cells and HepG2.2.1.5 cells pre-coated with peptide) were grown to a good state. 10 hours before the cells were used, 10 μg/ml test drug was added to the culture, and the cells were incubated. 10^6 Target cells were placed in 1 ml RPMI1640 media (containing 20% calf serum), and 100 μCi ^51Cr (NEN) was added for labelling in water-bath at 37° C. for 2 hours. The labelled target cells were washed with sterilized PBS buffer for 3 times under centrifugation (500 rpm/5 min), and were plated on 96-well V-bottom culture plates in an amount of 10^4 target cells/50 μl/well, each well was treated in triplicate. […] The minimum release value was 30% lower than the maximum release value. The formula for calculating ^51Cr release percentage was: [(CPMsample−CPMminimum release)/(CPMmaximum release−CMPminimum release)]×100%.

On to “CH3(CH2)14COKSSQYIKANSKFIGITEAAAFLPSDFFPSVGGGCTKPTDGNCT (Palmitoyl-KSSQYIKANSKFIGITEAAAFLPSDFFPSVGGGCTKPTDGNCT; cysteine pairing not given here) [SEQ ID NO:4]”, for which, in the series on HBV-DNA, HBeAg and HBsAg, the “copy numbers of HBV-DNA” value is reported as “inhibited in an obvious dose-effect dependence relation”, the “secretion level of HBeAg” value is “inhibited in an obvious dose-effect dependence relation” and the “secretion level of HBsAg” value is reported as “inhibited in an obvious dose-effect dependence relation”.
Consider “10 (SILSKTGDPV; Hepatitis B virus) [compound 10]”, for which the “degree of size shrinkage of the liposome after lyophilization” value (“degree of size shrinkage of the liposome” for short) in series [1] is listed as “+”.
“CH3(CH2)14COKSSQYIKANSKFIGITEAAASIVSPFIPLLGGGDPRVRGLYFPA (Palmitoyl-KSSQYIKANSKFIGITEAAASIVSPFIPLLGGGDPRVRGLYFPA) [SEQ ID NO:5]”: in the series on HBV-DNA transgenic mice [2], the IL-4 secretion entry is given as “did not exhibit an obvious dose-effect dependence relation” and the “secretion of IFN-γ” value is “strong secretion of IFN-γ”. Moreover, the “expression frequency of IFN-γ secreting cells in peripheral blood lymphocytes” value with HBV-DNA transgenic mice [3] (10-1000 U/mouse) was “increased with the increase of immunogen dose”. The “highest expression frequency of IFN-γ secreting cells” value in the series on HBV-DNA transgenic mice [3] (IFN-α2b at 15000 U/mouse) is recorded as 3660 IFN-γ secreting cells/10^6 PBMC. Further, in series [4], the “HBsAg in the serum” value was “obvious decrease”. For the same substance, the “HBV-DNA in the serum (copy number, replication level)” value in series [5] was “obvious decrease”.
For “CH3CH2CH═CHCH2CH═CH(CH2)CH═CH(CH2)7COKSSPAREGGGWLSLLVPFVSSSDP RVRGLYFPA [SEQ ID NO:2]”, in series [6], the “effect of inducing the secretion of IL-4” value is on record as “not obvious” and the “secretion of IFN-γ” value is “induce the secretion of IFN-γ in a notable dose-effect dependence relation”.
Consider “9 (MQWNSTALHQALQDP; Hepatitis B virus) [compound 9]”, for which the Encapsulation rate in series [7] was 109.4%. Also, in series [1], the “degree of size shrinkage of the liposome” value was “+”.
As to “8 (PLGFFPDH; Hepatitis B virus) [compound 8]”, in [7], the Encapsulation rate is 79.29%. Besides, in [1], the “degree of size shrinkage of the liposome” value is recorded as “−”.
With “5 (Palmitoyl-KSSQYIKANSKFIGITEAAASIVSPFIPLLGGGDPRVRGLYFPA) [compound 5]”, the Encapsulation rate in [7] is on record as 97.27%. The “degree of size shrinkage of the liposome” value in [1] was “+++”.
Take “7 (PADRE; Th cell epitope from tetanus toxoid or variant species thereof) [compound 7]”: in series [7], the Encapsulation rate is on record as 53.75%. Moreover, in series [1], the “degree of size shrinkage of the liposome” value is recorded as “−”.
In the case of “3 (KSSQYIKANSKFIGITEGGGDPRVRGLYFPA; not fully specified (N-terminus); printed as CH3CH2CH═CHCH2CH═CH(CH2)7CO7KSSQYIKANSKFIGITEGGGDPRVRGLYFPA; also: N-terminal acyl on K unclear: CH3(CH2)7CH=CH(CH2)-CO or CH3CH2CH=CHCH2CH=CH(CH2)7CO) [compound 3]”, the Encapsulation rate in [7] is 44.92%. For the same substance, the “degree of size shrinkage of the liposome” value in series [1] is reported as “+++”.
For the substance “1 (Palmitoyl-KSSQYIKANSKFIGITEAAAFLPSDFFPSVGGGDPRVRGLYFPA) [compound 1]”, the Encapsulation rate in series [7] was determined as 93.16%. Also, the “degree of size shrinkage of the liposome” value in [1] is recorded as “++++”.
For “6 (QYIKANSKFIGITE; Th cell epitope from tetanus toxoid or variant species thereof) [compound 6]”, in that order: 79.26% and “+++”.
For the substance “CH3(CH2)14COKSSYIKANSK FIGITEAAAMQWNSTALHQALQDPGGGDPRVRGLYFPA (Palmitoyl-KSSYIKANSKFIGITEAAAMQWNSTALHQALQDPGGGDPRVRGLYFPA) [SEQ ID NO:72]”, the Specific activity in the series with enzyme-labeled antibody was 11689.76±1503.57 U/mg.
The substance “4 (Palmitoyl-KSSQYIKANSKFIGITEAAAFLPSDFFPSVGGGCTKPTDGNCT; cysteine pairing not given here) [compound 4]” returned an Encapsulation rate in series [7] of 69.48%. Also, the “degree of size shrinkage of the liposome” value in series [1] is “++”.
On to “CH3CH2CH═CHCH2CH═CH(CH2)CH═CH(CH2)7COFLPSDFFPSVAAADPRVRGLYFPA (linolenoyl-FLPSDFFPSVAAADPRVRGLYFPA) [SEQ ID NO:54]”, for which the “specific killing of target cells” value in [8] was “specifically kill peptide pre-coated T2 cells, E cells and HepG2.2.15 cells”. Moreover, the “target cell-specific lysis rate” value in series [8] (PBMCs of healthy human) was “up to 62.8%”.
